By IC50 is commonly meant the concentration needed to halve the response being measured. A lower IC50 goes with greater potency.

In assay [1] the target is mAb R24 (anti-GD3 monoclonal antibody, IgG3). In words: competitive ELISA: BEC2 pre-incubated with mAb R24 (30 min), remaining R24 binding to plate coated with 0.1 µg GD3 ganglioside. Background: An ELISA detects its analyte on a solid surface through an enzyme-linked reagent.
Assay [2] shares this target. In words: competitive ELISA: peptide pre-incubated with mAb R24, remaining R24 binding to GD3-coated plate.
Assay [3] has the same target. In words: competitive ELISA: peptide pre-incubated with mAb R24 (30 min), remaining R24 binding to plate coated with 0.1 µg GD3 ganglioside.

In assay [1], “mAb BEC2 (anti-idiotypic monoclonal antibody, IgG2b)” gave a half-inhibitory concentration (IC50) of 10 µg/mL and a concentration giving full inhibition of 60 µg/mL.
In assay [2], ACTPYAMLPGCK [GD3-like peptide PGD3-5] had a concentration giving full inhibition greater than 600 pmol/mL. For the same molecule, in assay [3], the IC50 amounted to 100 nM.
For RHAYRSMAEWGFLYS [GD3-like peptide PGD3-4] the same measures were greater than 600 pmol/mL and 150 nM.
The molecule GLAPPDYAERFFLIS [GD3-like peptide PGD3-3] showed a concentration giving full inhibition in assay [2] greater than 600 pmol/mL. Further, in assay [3], the concentration for half-maximal inhibition (IC50) amounted to 300 nM.
In turn, SVAVPPPADDPSWRY [GD3-like peptide PGD3-6] had a concentration giving full inhibition in assay [2] greater than 600 pmol/mL. For the same molecule, in assay [3], the IC50 was found to be 250 nM.
